Data reported in PMC6247401, “Macrophage LRP1 Promotes Diet-Induced Hepatic Inflammation and Metabolic Dysfunction by Modulating Wnt Signaling” (Mediators of Inflammation, 2018).

Target: T1, low-density lipoprotein receptor-related protein 1 (LRP1) (UniProt Q07954 20-4544)
T1 construct: low-density lipoprotein receptor-related protein 1 (LRP1), full length, purified from placenta; also called full-length LRP1; purified LRP1
Assay: SPR; Biacore 3000; full-length LRP1 amine-coupled to a CM5 chip; sFRP-5 (1.6-100 nmol/l) flowed over at 20 ul/min, 25°C, in HBS-P (0.01 M HEPES pH 7.4, 0.15 M NaCl, 0.005% P20) with 1 mM CaCl2; Req from a pseudo-first order fit with a nonspecific component, plotted against concentration and fitted to a single class of sites
Conditions: both partners purified

T1 sequence (Q07954 20-4544): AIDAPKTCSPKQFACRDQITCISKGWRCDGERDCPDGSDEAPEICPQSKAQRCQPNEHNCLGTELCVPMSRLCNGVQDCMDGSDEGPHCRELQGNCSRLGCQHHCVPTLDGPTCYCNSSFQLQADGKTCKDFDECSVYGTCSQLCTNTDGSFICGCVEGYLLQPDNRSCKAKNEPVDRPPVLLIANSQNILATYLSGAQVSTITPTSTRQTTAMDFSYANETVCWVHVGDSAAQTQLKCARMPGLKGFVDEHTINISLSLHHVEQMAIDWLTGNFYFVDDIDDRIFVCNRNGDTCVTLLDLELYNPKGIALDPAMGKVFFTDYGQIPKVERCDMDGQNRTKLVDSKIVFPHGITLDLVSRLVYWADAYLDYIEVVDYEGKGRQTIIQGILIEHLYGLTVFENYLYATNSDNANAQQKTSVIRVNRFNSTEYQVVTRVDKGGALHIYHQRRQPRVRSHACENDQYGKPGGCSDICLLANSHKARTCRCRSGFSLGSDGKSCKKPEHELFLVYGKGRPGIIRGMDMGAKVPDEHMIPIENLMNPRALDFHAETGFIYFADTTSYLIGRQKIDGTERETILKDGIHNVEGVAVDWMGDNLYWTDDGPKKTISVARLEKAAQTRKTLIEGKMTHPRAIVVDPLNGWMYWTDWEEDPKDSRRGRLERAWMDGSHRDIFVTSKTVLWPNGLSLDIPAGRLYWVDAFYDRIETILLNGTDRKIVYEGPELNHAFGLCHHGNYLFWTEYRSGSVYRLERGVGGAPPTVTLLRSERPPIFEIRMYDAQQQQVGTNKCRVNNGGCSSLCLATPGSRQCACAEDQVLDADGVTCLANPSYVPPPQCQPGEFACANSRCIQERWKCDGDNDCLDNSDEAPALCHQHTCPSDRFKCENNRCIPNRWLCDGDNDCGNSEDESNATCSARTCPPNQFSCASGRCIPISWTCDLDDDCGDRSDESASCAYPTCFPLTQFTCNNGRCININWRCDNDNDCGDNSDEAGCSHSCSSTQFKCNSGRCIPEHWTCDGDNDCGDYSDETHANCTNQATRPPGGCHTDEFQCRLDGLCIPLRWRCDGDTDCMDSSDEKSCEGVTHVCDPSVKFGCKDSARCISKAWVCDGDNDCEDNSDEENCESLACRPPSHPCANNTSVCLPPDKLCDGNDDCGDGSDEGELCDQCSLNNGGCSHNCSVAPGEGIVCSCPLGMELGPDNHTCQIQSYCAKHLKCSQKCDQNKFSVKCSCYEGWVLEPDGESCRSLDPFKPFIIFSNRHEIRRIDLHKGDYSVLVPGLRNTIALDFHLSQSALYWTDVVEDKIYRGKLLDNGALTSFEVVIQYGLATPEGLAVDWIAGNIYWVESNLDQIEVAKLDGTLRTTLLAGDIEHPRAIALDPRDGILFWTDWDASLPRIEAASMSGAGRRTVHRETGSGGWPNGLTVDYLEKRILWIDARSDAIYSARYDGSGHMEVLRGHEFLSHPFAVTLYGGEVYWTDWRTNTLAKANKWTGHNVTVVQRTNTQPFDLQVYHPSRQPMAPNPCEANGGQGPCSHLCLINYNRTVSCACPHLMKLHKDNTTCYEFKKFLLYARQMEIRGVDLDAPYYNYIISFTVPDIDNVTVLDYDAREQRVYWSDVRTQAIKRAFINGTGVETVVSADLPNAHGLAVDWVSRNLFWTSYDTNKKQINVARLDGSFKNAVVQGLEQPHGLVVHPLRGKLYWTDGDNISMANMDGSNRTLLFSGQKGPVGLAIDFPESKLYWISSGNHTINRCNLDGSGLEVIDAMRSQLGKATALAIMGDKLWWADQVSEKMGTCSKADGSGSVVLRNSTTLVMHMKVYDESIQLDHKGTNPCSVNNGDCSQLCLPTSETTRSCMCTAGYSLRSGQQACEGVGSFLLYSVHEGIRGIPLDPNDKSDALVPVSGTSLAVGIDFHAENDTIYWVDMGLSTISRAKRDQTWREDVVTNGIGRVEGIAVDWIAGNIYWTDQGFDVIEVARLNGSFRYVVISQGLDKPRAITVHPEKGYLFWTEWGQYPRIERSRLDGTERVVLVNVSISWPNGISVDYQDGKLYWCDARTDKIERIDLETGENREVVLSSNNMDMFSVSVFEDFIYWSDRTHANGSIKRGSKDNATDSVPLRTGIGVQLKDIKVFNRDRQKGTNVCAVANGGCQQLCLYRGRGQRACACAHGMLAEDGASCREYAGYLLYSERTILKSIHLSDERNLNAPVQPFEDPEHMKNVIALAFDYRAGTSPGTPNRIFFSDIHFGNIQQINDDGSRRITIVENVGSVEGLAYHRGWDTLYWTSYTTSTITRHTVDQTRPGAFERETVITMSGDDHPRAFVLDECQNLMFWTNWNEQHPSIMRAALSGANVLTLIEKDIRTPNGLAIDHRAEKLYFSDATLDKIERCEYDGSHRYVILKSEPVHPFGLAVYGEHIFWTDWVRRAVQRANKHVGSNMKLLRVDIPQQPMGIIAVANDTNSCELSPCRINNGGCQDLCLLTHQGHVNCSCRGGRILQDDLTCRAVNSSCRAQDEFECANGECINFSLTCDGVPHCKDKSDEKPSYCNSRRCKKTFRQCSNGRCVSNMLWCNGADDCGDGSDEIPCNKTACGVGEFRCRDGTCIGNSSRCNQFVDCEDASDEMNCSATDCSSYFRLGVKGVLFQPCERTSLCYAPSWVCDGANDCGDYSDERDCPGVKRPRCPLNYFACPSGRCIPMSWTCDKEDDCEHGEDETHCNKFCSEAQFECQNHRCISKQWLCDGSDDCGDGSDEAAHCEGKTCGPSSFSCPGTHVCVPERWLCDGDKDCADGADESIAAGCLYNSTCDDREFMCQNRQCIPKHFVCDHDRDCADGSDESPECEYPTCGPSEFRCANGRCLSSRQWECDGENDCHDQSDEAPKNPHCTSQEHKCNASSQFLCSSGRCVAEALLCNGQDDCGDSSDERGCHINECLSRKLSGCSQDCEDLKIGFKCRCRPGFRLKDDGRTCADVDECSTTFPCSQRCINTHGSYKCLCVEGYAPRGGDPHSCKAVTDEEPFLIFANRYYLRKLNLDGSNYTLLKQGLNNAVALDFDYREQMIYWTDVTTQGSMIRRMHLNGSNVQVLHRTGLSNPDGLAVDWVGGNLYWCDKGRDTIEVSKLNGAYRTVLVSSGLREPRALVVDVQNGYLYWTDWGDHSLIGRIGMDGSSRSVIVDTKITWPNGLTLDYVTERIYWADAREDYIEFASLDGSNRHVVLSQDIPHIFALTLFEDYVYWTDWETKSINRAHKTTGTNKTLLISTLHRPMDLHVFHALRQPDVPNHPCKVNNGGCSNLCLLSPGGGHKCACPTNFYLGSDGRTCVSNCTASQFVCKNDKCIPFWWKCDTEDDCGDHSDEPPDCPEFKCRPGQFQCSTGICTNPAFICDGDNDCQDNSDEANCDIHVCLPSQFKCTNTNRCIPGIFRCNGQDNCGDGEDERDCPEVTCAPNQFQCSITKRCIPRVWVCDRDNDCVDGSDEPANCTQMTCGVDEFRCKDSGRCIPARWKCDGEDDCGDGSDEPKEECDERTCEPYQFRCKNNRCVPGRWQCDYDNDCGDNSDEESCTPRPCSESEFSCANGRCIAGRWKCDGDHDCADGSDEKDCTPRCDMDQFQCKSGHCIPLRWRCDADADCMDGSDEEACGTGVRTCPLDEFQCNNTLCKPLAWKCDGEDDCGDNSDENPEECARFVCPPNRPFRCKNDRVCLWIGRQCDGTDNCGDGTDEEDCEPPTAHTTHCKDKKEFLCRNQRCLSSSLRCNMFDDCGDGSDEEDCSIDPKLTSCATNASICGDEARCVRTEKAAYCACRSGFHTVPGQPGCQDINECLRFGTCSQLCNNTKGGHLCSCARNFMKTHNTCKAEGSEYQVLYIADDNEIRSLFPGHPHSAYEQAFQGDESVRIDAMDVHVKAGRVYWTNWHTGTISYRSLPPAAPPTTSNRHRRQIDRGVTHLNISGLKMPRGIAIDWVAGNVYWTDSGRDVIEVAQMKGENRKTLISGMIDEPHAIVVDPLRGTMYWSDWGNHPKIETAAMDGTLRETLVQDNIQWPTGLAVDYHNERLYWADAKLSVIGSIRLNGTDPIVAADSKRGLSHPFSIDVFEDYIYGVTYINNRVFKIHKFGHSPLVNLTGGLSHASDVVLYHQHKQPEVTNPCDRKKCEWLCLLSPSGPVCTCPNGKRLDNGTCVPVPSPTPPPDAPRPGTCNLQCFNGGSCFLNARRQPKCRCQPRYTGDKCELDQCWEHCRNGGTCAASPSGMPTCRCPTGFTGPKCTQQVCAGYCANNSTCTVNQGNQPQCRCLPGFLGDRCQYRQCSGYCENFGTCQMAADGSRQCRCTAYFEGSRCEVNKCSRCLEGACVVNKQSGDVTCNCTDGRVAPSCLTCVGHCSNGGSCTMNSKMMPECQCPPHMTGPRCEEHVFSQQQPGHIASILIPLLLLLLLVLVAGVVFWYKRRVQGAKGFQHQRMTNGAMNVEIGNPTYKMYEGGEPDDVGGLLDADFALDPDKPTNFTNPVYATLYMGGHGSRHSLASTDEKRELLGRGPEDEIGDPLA

B1: secreted frizzled-related protein 5 (sFRP-5) (ligand, UniProt Q5T4F7 30-317, looked up)
chain: EEYDYYGWQAEPLHGRSYSKPPQCLDIPADLPLCHTVGYKRMRLPNLLEHESLAEVKQQASSWLPLLAKRCHSDTQVFLCSLFAPVCLDRPIYPCRSLCEAVRAGCAPLMEAYGFPWPEMLHCHKFPLDNDLCIAVQFGHLPATAPPVTKICAQCEMEHSADGLMEQMCSSDFVVKMRIKEIKIENGDRKLIGAQKKKKLLKPGPLKRKDTKRLVLHMKNGAGCPCPQLDSLAGSFLVMGRKVDGQLLLMAVYRWDKKNKEMKFAVKFMFSYPCSLYYPFFYGAAEPH
notes: secreted frizzled-related protein 5 (sFRP-5), commercial recombinant protein; source: bought: R&D Systems 6266-SF-050
A Kd of 32 nM was found for B1 in this work.
